Experimental data published in the RNAGym collection of RNA variant scans (doi:10.1073/pnas.2313332121).

B1: TPR t1 (parent)
chain: GACCAAUCUGCCCUCAGAGCUCGAGAACAUCUUCGGAUGCAGAGGAGGCAGGCUUCGGUGGCGCGAUAGCGCCAACGUCCUCAACCUCCAAUGCAUCCCACCACAUGAUGAUGCCUGAAGAGCCUUGGUUUUUUG

Variants of: B1
Assay: polymerase ribozyme fitness, log enrichment relative to wild type (log ratio); higher = more active; in vitro selection for triplet polymerase activity
In short: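 Each subunit of a heterodimeric triplet polymerase ribozyme was mutagenized into a library by PCR, transcribed, and subjected to one round of in vitro selection, run in triplicate. Libraries were annealed with a biotinylated primer, the partner subunit and triplets, incubated frozen at −7 °C, and extended constructs were gel-excised, captured on streptavidin beads and recovered by RT-PCR. Input and output libraries were sequenced on Illumina, keeping genotypes with ≥10 input reads and ≥1 read per output. Fitness is log base 2 of genotype enrichment divided by wild-type enrichment, from inverse-variance-weighted replicate averages.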

Variant | polymerase ribozyme fitness (log ratio)
G10A A26G A103U C104A A121C | -0.666
G10U A37C G113U U129A | -5.04
G10U C20A A84U U131C | -2.84
U9G C72A | -0.48
G10A A27U G42A C70U C99A | -6.56
G10U G71C | -1.29
G10U G69A | -3.09
G10U A16C G44C C70U A111C U125G | -7.14
U9G C12G G36A C101G | -1.32
G10C U112A | 0.23
U9C G10A A37U | -0.108
G10C A26C A37U U78C A83U U87A C115G G127A | -6.88
G10A G120U G122A | 1.51
U9G C53U G61C C124G U131A | 1.49
U9G A50U A74C G113C | -3.6
G10U U112G | 0.352
G10A A37U C53A C56G G69A C88U G120C G122U | -1.99
G10A G52A G60A C79A | -1.36
G10A G39U A90C U106A | -2.41
U9C G51C U81G U92C | -5.89
G10A C72U G113A | -1.32

Variant | polymerase ribozyme fitness (log ratio)
U9G C89U | 0.304
G10A C88A A90G G122U U133G | 0.185
G10C C70U A108U U112A U132C | -6.08
U9G G42C G45A C85G | -4.6
G10U A26U G39C C89U | -5.19
U9G C80A U87C C114U | -4.36
U9G C22U U54G C104U | -4.59
U9C C56U A83U G117A | 0.635
G10U C12A C49U A118U U131G | -1.34
G10C C11G A103U | -3.76
U9C G42U C53G C56A C73A C88U | -1.43
G10U A100U | -1.18
C11A A121U | 0.371
G10U C56A U112A | 0.0795
U9G G120A U130A | 1.11
G10A G71A C80A | -4.78
C11A C12G C20U U55A C56U G93C | -4.53
G10C C13A C40A G42U G52U C72A | -5.16
G10C G45U G47U C73A G117A A119U | -5.46
U9G G36U G60C A68G U78A C88A | -6.1
G10C A26G G71A | -2.61

Variant | polymerase ribozyme fitness (log ratio)
G10A C11A C15A | -4.29
U9G U55C C89U C94A U126A | -1.95
G10U C82G C85U G120C | 0.866
G10A A83C G110C U133A | -3.93
U9G C13G | 0.0659
G10C C20U G48C C114A C123U | -3.33
U9C C72U U78C A83U A90G A121G | 2.19
U9G A18C C56G C72A | -3.47
U9C G60U U109G C114G | -3.95
U9C G69U A100U U112A C123U | 2.09
G10U C53G U78A | -2.99
G10U U78C | -0.395
G10C G36C G45C U59G C62U C80U | -3.25
G10U A46C A74U G127C | -2.03
G10U C49U G57A U106C | -2.46
U9G C40U G45U U129C G135A | -3.12
U9C G60U A105U A119G | -1.05
G10C G69A | -4.78
U9G G10C C94G A121C C124G | 1.48
G10C C98U | -1.81
G10A C40A C56A A84C C85A C99A C115U | -7.46

Variant | polymerase ribozyme fitness (log ratio)
G10U G52A C79G A119U | -0.109
G10U G17A C56A C89G G117A | -3.05
G10C C15A | -2.21
G10C U87A | -0.978
U9G G45U U92C U129G | -1.65
U9G C104U | 0.944
G10A C12U U112A | 1.73
G10C A18U | -3.34
U9C G19A | -1.95
U9C G19C | -2.29
U9C G48C C101A G117A | -1.58
U9C U67C C82G U109C | -6.64
G10A C15G G61U | -3.16
C11A A75U C79U C85A | -2.71
U9C G17U U32C C49U C72U A105G | -5.59
G10A C64U U129G | -1.78
U9G G52U C70U C88G C123A | -0.768
U9C C114A U129C | -1.92
U9C G71U U78G U132A | -0.414
G10A C56U U96C | -0.627
